Source: patent publication US20040248178A1 (GENERAL HOSPITAL, published 2004)

Biological target: the molecule itself
Experiment: transmission electron microscopy after rotary shadowing (self-association)

B1: Recombinant mouse β-netrin lacking the C domain, with His tag (rβ-NΔC+His) (ligand)
chain: GLNGVAGANSRCEKACNPRMGNLALGRKLRADTMCGQNATELFCFYSENADLTCRQPKCDKCNAAHSHLAHPPSAMADSSFRFPRTWWQSAEDVHREKIQLDLEAEFYFTHLIMVFKSPRPAAMVLDRSQDFGKTWKPYKYFATNCSATFGLEDDVVKKGAICTSRYSNPFPCTGGEVIFRALSPPYDIENPYSAKVQEQLKITNLRVRLLKRQSCPCQINDLNAKPHHFMHYAVYDFIVKGSCFCNGHADQCLPVEGFRPIKAPGAFHVVHGRCMCKHNTAGSHCQHCAPLYNDRPWEAADGRTGAPNECRTCKCNGHADTCHFDVNVWEASGNRSGGVCNNCQHNTEGQHCQRCKPGFYRDLRRPFSAPDACKACSCHPVGSAILPFSSVTFCDPSNGDCPCKPGVAGPHCDRCMVGYWGFGDYGCRPCDCAGSCDPLTGDCISSNADVDWY
notes: also called rβ-NAC+His; rβ-netrin ΔC; not shown: six histidine tag followed by a thrombin cleavage site
  binding result: no binding
